According to patent US20060280740A1:

How the values were obtained:
[1] = target: KIR2DL3 recombinant protein (entire extracellular domain, produced in E. coli, immobilized on Biacore chip) (human) (UniProt P43628); assay: SPR, KIR2DL3 chip; second Ab after first Ab 1-4 F1
[2] = target: KIR2DL3 recombinant protein (entire extracellular domain, produced in E. coli, immobilized on Biacore chip) (human) (UniProt P43628); assay: SPR, KIR2DL3 chip; second Ab after first Ab 1-6 F1
[3] = target: KIR2DL3 recombinant protein (entire extracellular domain, produced in E. coli, immobilized on Biacore chip) (human) (UniProt P43628); assay: SPR, KIR2DL3 chip; second Ab after first Ab 1-7 F9
[4] = target: KIR2DL3 recombinant protein (entire extracellular domain, produced in E. coli, immobilized on Biacore chip) (human) (UniProt P43628); assay: SPR competition, KIR2DL3 chip; competitor (second Ab) DF200
[5] = target: KIR2DL3 recombinant protein (entire extracellular domain, produced in E. coli, immobilized on Biacore chip) (human) (UniProt P43628); assay: SPR competition, KIR2DL3 chip; competitor (second Ab) Pan2D
[6] = target: KIR2DL3 recombinant protein (entire extracellular domain, produced in E. coli, immobilized on Biacore chip) (human) (UniProt P43628); assay: SPR competition, KIR2DL3 chip; competitor (second Ab) 1-4 F1
[7] = target: KIR2DL3 recombinant protein (entire extracellular domain, produced in E. coli, immobilized on Biacore chip) (human) (UniProt P43628); assay: SPR competition, KIR2DL3 chip; competitor (second Ab) 1-6 F1
[8] = target: KIR2DL3 recombinant protein (entire extracellular domain, produced in E. coli, immobilized on Biacore chip) (human) (UniProt P43628); assay: SPR competition, KIR2DL3 chip; competitor (second Ab) 1-7 F9
[9] = target: KIR2DL3 recombinant protein (entire extracellular domain, produced in E. coli, immobilized on Biacore chip) (human) (UniProt P43628); assay: SPR, KIR2DL3 chip; second Ab alone (field of first Ab 1-4 F1)
[10] = target: KIR2DL3 recombinant protein (entire extracellular domain, produced in E. coli, immobilized on Biacore chip) (human) (UniProt P43628); assay: SPR, KIR2DL3 chip; second Ab alone (field of first Ab 1-6 F1)
[11] = target: KIR2DL3 recombinant protein (entire extracellular domain, produced in E. coli, immobilized on Biacore chip) (human) (UniProt P43628); assay: SPR, KIR2DL3 chip; second Ab alone (field of first Ab 1-7 F9)
[12] = target: KIR2DL1 recombinant protein (entire extracellular domain, produced in E. coli, immobilized on Biacore chip) (human) (UniProt P43626); assay: SPR, KIR2DL1 chip; second Ab after first Ab 1-6 F1
[13] = target: KIR2DL1 recombinant protein (entire extracellular domain, produced in E. coli, immobilized on Biacore chip) (human) (UniProt P43626); assay: SPR, KIR2DL1 chip; second Ab after first Ab 1-6 F5
[14] = target: KIR2DL1 recombinant protein (entire extracellular domain, produced in E. coli, immobilized on Biacore chip) (human) (UniProt P43626); assay: SPR, KIR2DL1 chip; second Ab after first Ab 1-7 F9
[15] = target: KIR2DL3 recombinant protein (entire extracellular domain, produced in E. coli, immobilized on Biacore chip) (human) (UniProt P43628); assay: SPR, KIR2DL3 chip; second Ab after first Ab 1-6 F5
[16] = target: immobilized KIR 2DS1 (UniProt Q14954); assay: SPR, KIR2DS1 chip; second Ab after first Ab 1-7 F9
[17] = target: KIR2DL1 recombinant protein (entire extracellular domain, produced in E. coli, immobilized on Biacore chip) (human) (UniProt P43626); assay: SPR competition, KIR2DL1 chip; competitor (second Ab) EB6
[18] = target: KIR2DL1 recombinant protein (entire extracellular domain, produced in E. coli, immobilized on Biacore chip) (human) (UniProt P43626); assay: SPR competition, KIR2DL1 chip; competitor (second Ab) Pan2D
[19] = target: KIR2DL3 recombinant protein (entire extracellular domain, produced in E. coli, immobilized on Biacore chip) (human) (UniProt P43628); assay: SPR competition, KIR2DL3 chip; competitor (second Ab) gl183
[20] = target: immobilized KIR 2DS1 (UniProt Q14954); assay: SPR competition, KIR2DS1 chip; competitor (second Ab) Pan2D
[21] = target: KIR2DL1 recombinant protein (entire extracellular domain, produced in E. coli, immobilized on Biacore chip) (human) (UniProt P43626); assay: SPR competition, KIR2DL1 chip; competitor (second Ab) 1-4 F1
[22] = target: KIR2DL1 recombinant protein (entire extracellular domain, produced in E. coli, immobilized on Biacore chip) (human) (UniProt P43626); assay: SPR competition, KIR2DL1 chip; competitor (second Ab) 1-6 F1
[23] = target: KIR2DL1 recombinant protein (entire extracellular domain, produced in E. coli, immobilized on Biacore chip) (human) (UniProt P43626); assay: SPR competition, KIR2DL1 chip; competitor (second Ab) 1-6 F5
[24] = target: KIR2DL1 recombinant protein (entire extracellular domain, produced in E. coli, immobilized on Biacore chip) (human) (UniProt P43626); assay: SPR competition, KIR2DL1 chip; competitor (second Ab) 1-7 F9
[25] = target: KIR2DL3 recombinant protein (entire extracellular domain, produced in E. coli, immobilized on Biacore chip) (human) (UniProt P43628); assay: SPR competition, KIR2DL3 chip; competitor (second Ab) 1-6 F5
[26] = target: immobilized KIR 2DS1 (UniProt Q14954); assay: SPR competition, KIR2DS1 chip; competitor (second Ab) 1-4 F1
[27] = target: immobilized KIR 2DS1 (UniProt Q14954); assay: SPR competition, KIR2DS1 chip; competitor (second Ab) 1-7 F9
[28] = target: KIR2DL1 recombinant protein (entire extracellular domain, produced in E. coli, immobilized on Biacore chip) (human) (UniProt P43626); assay: SPR, KIR2DL1 chip; second Ab alone (field of first Ab 1-6 F1)
[29] = target: KIR2DL1 recombinant protein (entire extracellular domain, produced in E. coli, immobilized on Biacore chip) (human) (UniProt P43626); assay: SPR, KIR2DL1 chip; second Ab alone (field of first Ab 1-6 F5)
[30] = target: KIR2DL1 recombinant protein (entire extracellular domain, produced in E. coli, immobilized on Biacore chip) (human) (UniProt P43626); assay: SPR, KIR2DL1 chip; second Ab alone (field of first Ab 1-7 F9)
[31] = target: KIR2DL3 recombinant protein (entire extracellular domain, produced in E. coli, immobilized on Biacore chip) (human) (UniProt P43628); assay: SPR, KIR2DL3 chip; second Ab alone (field of first Ab 1-6 F5)
[32] = target: immobilized KIR 2DS1 (UniProt Q14954); assay: SPR, KIR2DS1 chip; second Ab alone (field of first Ab 1-7 F9)
[33] = target: KIR2DL1(R131W)-hFc (human) (UniProt P43626); assay: ELISA, KIR2DL1(R131W)-hFc against KIR2DL1-hFc, mAb at 1 µg/ml
[34] = target: KIR2DL1 recombinant protein (entire extracellular domain, produced in E. coli, immobilized on Biacore chip) (human) (UniProt P43626); assay: SPR (Biacore), KIR2DL1 immobilized on CM5, soluble antibody 1x10^-7 to 4x10^-10 M
[35] = target: KIR2DL3 recombinant protein (entire extracellular domain, produced in E. coli, immobilized on Biacore chip) (human) (UniProt P43628); assay: SPR (Biacore), KIR2DL3 immobilized on CM5, soluble antibody 1x10^-7 to 4x10^-10 M
[36] = target: KIR2DL1 recombinant protein (entire extracellular domain, produced in E. coli, immobilized on Biacore chip) (human) (UniProt P43626); assay: SPR competition, KIR2DL1 chip; competitor (second Ab) DF200
[37] = target: immobilized KIR 2DS1 (UniProt Q14954); assay: SPR competition, KIR2DS1 chip; competitor (second Ab) DF200

Sequence of KIR2DL1 recombinant protein (entire extracellular domain, produced in E. coli, immobilized on Biacore chip) (human) (P43626 22-245): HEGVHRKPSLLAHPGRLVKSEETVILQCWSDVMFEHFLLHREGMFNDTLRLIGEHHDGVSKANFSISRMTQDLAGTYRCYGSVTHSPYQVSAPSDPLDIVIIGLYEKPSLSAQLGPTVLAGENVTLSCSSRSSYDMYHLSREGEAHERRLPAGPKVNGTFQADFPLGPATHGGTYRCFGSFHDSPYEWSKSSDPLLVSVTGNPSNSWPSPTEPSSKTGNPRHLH
Sequence of KIR2DL3 recombinant protein (entire extracellular domain, produced in E. coli, immobilized on Biacore chip) (human) (P43628 22-245): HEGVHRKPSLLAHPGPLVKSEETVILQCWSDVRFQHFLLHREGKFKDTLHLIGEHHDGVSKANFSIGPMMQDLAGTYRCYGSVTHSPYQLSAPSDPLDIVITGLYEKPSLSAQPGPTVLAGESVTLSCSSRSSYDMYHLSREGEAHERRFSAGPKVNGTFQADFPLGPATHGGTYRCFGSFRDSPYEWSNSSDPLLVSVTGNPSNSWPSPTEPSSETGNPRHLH
Sequence of immobilized KIR 2DS1 (Q14954 22-245 limits assumed): as the sequence (P43626 22-245) above, with T70K, V90L, L114P, P154T, D163N, H182R, K216E counted along it
Sequence of KIR2DL1(R131W)-hFc (human) (P43626 22-245 R152W): as the sequence (P43626 22-245) above, with R131W counted along it

Row | Substance | RU, second antibody with first antibody present [1] | RU, second antibody with first antibody present [2] | RU, second antibody with first antibody present [3] | % inhibition of second antibody binding [4] | % inhibition of second antibody binding [5] | % inhibition of second antibody binding [6] | % inhibition of second antibody binding [7] | % inhibition of second antibody binding [8] | RU, direct binding of second antibody [9] | RU, direct binding of second antibody [10] | RU, direct binding of second antibody [11] | RU, second antibody with first antibody present [12] | RU, second antibody with first antibody present [13] | RU, second antibody with first antibody present [14] | RU, second antibody with first antibody present [15] | RU, second antibody with first antibody present [16] | % inhibition of second antibody binding [17] | % inhibition of second antibody binding [19] | % inhibition of second antibody binding [21] | % inhibition of second antibody binding [22] | also measured
1 | GL183 (IgG1 anti KIR2DL3) (antibody) | 330 RU | 570 RU | 200 RU | 8% | 40% | 75% | 18% | 76% | 1240 RU | 620 RU | 800 RU | – | – | – | – | – | – | – | – | – | –
2 | monoclonal antibody DF200 produced by hybridoma DF200 | 210 RU | 760 RU | 450 RU | – | 75% | 75% | 16% | 62% | 1140 RU | 790 RU | 770 RU | 310 RU | 290 RU | 545 RU | 760 RU | 1090 RU | 90% | 20% | 92% | 15% | % inhibition of second antibody binding [18]: 80%; % inhibition of second antibody binding [20]: 70%; % inhibition of second antibody binding [23]: 15%; % inhibition of second antibody binding [24]: 27%; % inhibition of second antibody binding [25]: 4%; % inhibition of second antibody binding [26]: 87%; % inhibition of second antibody binding [27]: 15%; RU, direct binding of second antibody [28]: 350 RU; RU, direct binding of second antibody [29]: 350 RU; RU, direct binding of second antibody [30]: 600 RU; RU, direct binding of second antibody [31]: 800 RU; RU, direct binding of second antibody [32]: 900 RU; reduction in binding compared to wild type [33]: 10%; Kd [34]: 10.9 nM; Kd [35]: 2 nM
3 | monoclonal antibody NKVSF1 | 890 RU | 1090 RU | 830 RU | 95% | – | 68% | 8% | 15% | 2400 RU | 990 RU | 870 RU | 440 RU | 440 RU | 534 RU | 950 RU | 1200 RU | 90% | 85% | 95% | 12% | % inhibition of second antibody binding [36]: 90%; % inhibition of second antibody binding [37]: 100%; % inhibition of second antibody binding [23]: 13%; % inhibition of second antibody binding [24]: 2%; % inhibition of second antibody binding [25]: 18%; % inhibition of second antibody binding [26]: 100%; % inhibition of second antibody binding [27]: 45%; RU, direct binding of second antibody [28]: 475 RU; RU, direct binding of second antibody [29]: 475 RU; RU, direct binding of second antibody [30]: 545 RU; RU, direct binding of second antibody [31]: 990 RU; RU, direct binding of second antibody [32]: 1350 RU; reduction in binding compared to wild type [33]: 10%
